According to paper doi:10.1101/2024.09.22.614354 (bioRxiv, 2024):

Assays:
Assay in all cases: fluorescence polarisation
[1] = target: T1, Rb^P M695I (human, UniProt P06400 380-788, M695I)
T1 sequence: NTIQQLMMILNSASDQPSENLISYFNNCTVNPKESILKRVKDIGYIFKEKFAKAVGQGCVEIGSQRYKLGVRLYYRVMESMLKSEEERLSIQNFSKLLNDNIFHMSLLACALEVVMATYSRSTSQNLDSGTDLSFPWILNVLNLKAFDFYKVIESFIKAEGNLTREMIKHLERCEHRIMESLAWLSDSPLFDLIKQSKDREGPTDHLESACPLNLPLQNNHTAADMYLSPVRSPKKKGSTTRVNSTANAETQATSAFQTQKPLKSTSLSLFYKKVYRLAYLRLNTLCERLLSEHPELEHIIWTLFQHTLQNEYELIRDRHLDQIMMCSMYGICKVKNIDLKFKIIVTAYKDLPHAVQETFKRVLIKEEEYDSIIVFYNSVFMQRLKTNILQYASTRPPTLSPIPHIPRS

[2] = target: T2, wild type Rb pocket domain (Rb^P) (human, UniProt P06400 380-788)
T2 sequence: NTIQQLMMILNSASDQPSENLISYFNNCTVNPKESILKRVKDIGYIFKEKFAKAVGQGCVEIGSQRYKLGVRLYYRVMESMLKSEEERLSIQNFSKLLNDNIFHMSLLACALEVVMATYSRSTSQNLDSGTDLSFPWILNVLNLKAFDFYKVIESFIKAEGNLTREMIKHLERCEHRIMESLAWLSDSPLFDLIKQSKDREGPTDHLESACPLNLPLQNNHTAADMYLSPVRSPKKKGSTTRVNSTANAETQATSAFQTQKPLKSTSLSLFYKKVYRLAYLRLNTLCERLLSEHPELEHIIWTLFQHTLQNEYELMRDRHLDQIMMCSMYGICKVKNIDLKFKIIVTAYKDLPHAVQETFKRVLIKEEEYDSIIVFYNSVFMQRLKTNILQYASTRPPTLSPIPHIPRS

[3] = target: T3, Rb^P E554K (human, UniProt P06400 380-788, E554K)
T3 sequence: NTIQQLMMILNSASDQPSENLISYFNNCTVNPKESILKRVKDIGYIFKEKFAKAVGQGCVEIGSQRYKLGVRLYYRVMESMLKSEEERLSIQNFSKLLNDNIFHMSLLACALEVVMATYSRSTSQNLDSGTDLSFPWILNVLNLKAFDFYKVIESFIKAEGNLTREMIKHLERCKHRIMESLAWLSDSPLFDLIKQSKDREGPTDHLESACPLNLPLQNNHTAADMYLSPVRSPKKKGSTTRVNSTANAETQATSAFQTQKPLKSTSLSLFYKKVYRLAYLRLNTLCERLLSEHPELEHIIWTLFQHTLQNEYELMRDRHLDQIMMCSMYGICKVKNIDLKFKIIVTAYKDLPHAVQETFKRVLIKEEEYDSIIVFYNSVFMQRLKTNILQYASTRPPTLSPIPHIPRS

[4] = target: T4, Rb^P S751Y (human, UniProt P06400 380-788, S751Y)
T4 sequence: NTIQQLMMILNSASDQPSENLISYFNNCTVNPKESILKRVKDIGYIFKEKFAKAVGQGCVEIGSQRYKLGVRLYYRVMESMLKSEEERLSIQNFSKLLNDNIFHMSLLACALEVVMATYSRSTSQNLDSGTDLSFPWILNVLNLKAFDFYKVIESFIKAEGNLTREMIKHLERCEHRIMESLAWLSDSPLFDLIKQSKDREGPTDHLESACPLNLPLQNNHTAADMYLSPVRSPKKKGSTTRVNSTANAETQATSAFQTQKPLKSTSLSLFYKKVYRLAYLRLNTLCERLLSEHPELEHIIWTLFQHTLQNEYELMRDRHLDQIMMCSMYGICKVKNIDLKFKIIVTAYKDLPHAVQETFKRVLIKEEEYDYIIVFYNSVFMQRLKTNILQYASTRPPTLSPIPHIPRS

[5] = target: T5, Rb^P M704V (human, UniProt P06400 380-788, M704V)
T5 sequence: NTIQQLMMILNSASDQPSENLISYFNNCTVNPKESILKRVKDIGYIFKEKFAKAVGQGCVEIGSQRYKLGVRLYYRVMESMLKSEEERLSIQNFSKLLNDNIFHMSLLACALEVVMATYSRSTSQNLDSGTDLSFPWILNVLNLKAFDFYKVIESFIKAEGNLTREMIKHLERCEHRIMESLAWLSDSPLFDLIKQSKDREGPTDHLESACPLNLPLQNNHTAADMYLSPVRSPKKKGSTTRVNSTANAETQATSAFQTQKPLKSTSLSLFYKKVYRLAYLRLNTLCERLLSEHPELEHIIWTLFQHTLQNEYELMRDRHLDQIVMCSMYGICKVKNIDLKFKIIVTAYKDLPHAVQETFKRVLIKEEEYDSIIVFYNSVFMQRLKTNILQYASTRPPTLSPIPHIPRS

Binder: DLYCYEQLN (not fully specified; TMR fluorescent label (TMR-E7^LxCxE)) [TMR-E7^LxCxE (LxCxE peptide of the E7 oncoprotein from HPV, TMR-labeled)]
- binding result [1]: binds
- Kd [2]: 0.007 µM
- Kd [3]: 0.024 µM
- Kd [4]: 0.012 µM
- Kd [5]: 0.014 µM
